Test results taken from the supplement of paper PMC10567573.

B1: GLT8D2 (parent)
chain: QEAKLLHWNGRHKPWDFPSVHNDL

Variants of: B1
Assay: protein stability index of a GFP-peptide fusion (GPS, HEK-293T) (PSI 1-6); higher = more stable
Conditions: c terminus: a fixed tail appended
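Further: lentivirally expressed fusions sorted by FACS into six bins by GFP to DsRed ratio, PSI derived from sequencing read proportions per bin multiplied by bin number.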

In order of falling protein stability index:
1. QEAKLLHQNGRHKPWDFPSVHNDL [W8Q]  3.71
2. QEAKLLHWNGRHKPWDFPSEHNDL [V20E]  3.63
3. QEAKLLHGNGRHKPWDFPSVHNDL [W8G]  3.6
4. QEAKLLHWNGRHKPWDFPSDHNDL [V20D]  3.53
5. QEAKLLHWNGRHKPWDFPSVHNDQ [L24Q]  3.5
6. QEAKLLHDNGRHKPWDFPSVHNDL [W8D]  3.5
7. QEAKLLHANGRHKPWDFPSVHNDL [W8A]  3.39
8. QEAELLHWNGRHKPWDFPSVHNDL [K4E]  3.28
9. QEAKLLHWNGRHKPWDFPSVHEDL [N22E]  3.2
10. QEAKLLDWNGRHKPWDFPSVHNDL [H7D]  3.16
11. QEAKLLHVNGRHKPWDFPSVHNDL [W8V]  3.1
12. QEAKLLHRNGRHKPWDFPSVHNDL [W8R]  3.01
13. QEASLLHWNGRHKPWDFPSVHNDL [K4S]  2.99
14. QEAKLLHWNGRHKPWDFPSVHNDY [L24Y]  2.98
15. QEAKLLHWNGRHKPWDFPSAHNDL [V20A]  2.97
16. QEAKLLHWNGRHKPWDFPSRHNDL [V20R]  2.94
17. QEATLLHWNGRHKPWDFPSVHNDL [K4T]  2.92
18. QEAKLLHWNYRHKPWDFPSVHNDL [G10Y]  2.9
19. QEAKLLQWNGRHKPWDFPSVHNDL [H7Q]  2.9
20. QEAKLLHWNGRHKPWDFPSVHADL [N22A]  2.9
21. QEAKLLHINGRHKPWDFPSVHNDL [W8I]  2.9
22. QEAKLGHWNGRHKPWDFPSVHNDL [L6G]  2.89
23. QEARLLHWNGRHKPWDFPSVHNDL [K4R]  2.87
24. QQAKLLHWNGRHKPWDFPSVHNDL [E2Q]  2.85
25. NEAKLLHWNGRHKPWDFPSVHNDL [Q1N]  2.84
26. QEAPLLHWNGRHKPWDFPSVHNDL [K4P]  2.83
27. QEAALLHWNGRHKPWDFPSVHNDL [K4A]  2.81
28. QEAKLLRWNGRHKPWDFPSVHNDL [H7R]  2.81
29. QEAKLLHWNGRHKPWDFPSPHNDL [V20P]  2.81
30. QEAKLLHWNNRHKPWDFPSVHNDL [G10N]  2.8
31. QEAKLLHWNRRHKPWDFPSVHNDL [G10R]  2.79
32. QEAKLDHWNGRHKPWDFPSVHNDL [L6D]  2.79
33. QEAKLLHWNGRHKPWDFPSVHQDL [N22Q]  2.79
34. QEAKLLHWNGRHKPWDFPSIHNDL [V20I]  2.78
35. QEAKCLHWNGRHKPWDFPSVHNDL [L5C]  2.77
36. QEAKLLHWNGRHKPWDFPSHHNDL [V20H]  2.77
37. QEAKLLHWNARHKPWDFPSVHNDL [G10A]  2.75
38. QEAKLCHWNGRHKPWDFPSVHNDL [L6C]  2.75
39. QEAKLLHWNGRHKPWDFPSVHNDR [L24R]  2.74
40. QEAKILHWNGRHKPWDFPSVHNDL [L5I]  2.73
41. QEAKLLHWHGRHKPWDFPSVHNDL [N9H]  2.73
42. QEAKLNHWNGRHKPWDFPSVHNDL [L6N]  2.71
43. QEAKLLSWNGRHKPWDFPSVHNDL [H7S]  2.69
44. QEAKLLHKNGRHKPWDFPSVHNDL [W8K]  2.69
45. AEAKLLHWNGRHKPWDFPSVHNDL [Q1A]  2.68
46. QEAKHLHWNGRHKPWDFPSVHNDL [L5H]  2.67
47. QDAKLLHWNGRHKPWDFPSVHNDL [E2D]  2.65
48. GEAKLLHWNGRHKPWDFPSVHNDL [Q1G]  2.65
49. QEAKLLGWNGRHKPWDFPSVHNDL [H7G]  2.63
50. QEAKLLHWNGRHKPWDFPSVHGDL [N22G]  2.63
51. QEAKLLHPNGRHKPWDFPSVHNDL [W8P]  2.63
52. QEAKLHHWNGRHKPWDFPSVHNDL [L6H]  2.62
53. QEAKLLHWTGRHKPWDFPSVHNDL [N9T]  2.59
54. QEAKLYHWNGRHKPWDFPSVHNDL [L6Y]  2.56
55. QEAKLLHWNGRHKPWDFPSKHNDL [V20K]  2.56
56. QEAKLLHWPGRHKPWDFPSVHNDL [N9P]  2.56
57. QEAKLLHWNMRHKPWDFPSVHNDL [G10M]  2.53
58. QEAKLKHWNGRHKPWDFPSVHNDL [L6K]  2.52
59. SEAKLLHWNGRHKPWDFPSVHNDL [Q1S]  2.51
60. QEAKLLHWNTRHKPWDFPSVHNDL [G10T]  2.49
61. QEAKLLHWNKRHKPWDFPSVHNDL [G10K]  2.48
62. QEAKLVHWNGRHKPWDFPSVHNDL [L6V]  2.48
63. QNAKLLHWNGRHKPWDFPSVHNDL [E2N]  2.48
64. REAKLLHWNGRHKPWDFPSVHNDL [Q1R]  2.48
65. QEAKLLHWNGRHKPWDFPSVHHDL [N22H]  2.47
66. QEAKLLHWNDRHKPWDFPSVHNDL [G10D]  2.46
67. QEAKLLHWRGRHKPWDFPSVHNDL [N9R]  2.46
68. QEAKLLHWNGRHKPWDFPSVHNDI [L24I]  2.44
69. QEAKLLHWNGRHKPWDFPSMHNDL [V20M]  2.43
70. QEAKLLHWNGRHKPWDFPSLHNDL [V20L]  2.41
71. QEAKLLHWCGRHKPWDFPSVHNDL [N9C]  2.41
72. QGAKLLHWNGRHKPWDFPSVHNDL [E2G]  2.39
73. QEAKLLHWNFRHKPWDFPSVHNDL [G10F]  2.37
74. HEAKLLHWNGRHKPWDFPSVHNDL [Q1H]  2.35
75. QEAKLLHWNGRHKPWDFPSVHSDL [N22S]  2.33
76. QEAKLWHWNGRHKPWDFPSVHNDL [L6W]  2.26
77. QEAKLLHWVGRHKPWDFPSVHNDL [N9V]  2.25
78. WEAKLLHWNGRHKPWDFPSVHNDL [Q1W]  2.21
79. QRAKLLHWNGRHKPWDFPSVHNDL [E2R]  2.17
80. QEAKLLHWNVRHKPWDFPSVHNDL [G10V]  2.15
81. QEAKLLLWNGRHKPWDFPSVHNDL [H7L]  2.15
82. QEAKLLHWNGRHKPWDFPSVHCDL [N22C]  2.11
83. QEAKLLHWNGRHKPWDFPSVHWDL [N22W]  2.08
84. QEAKLLHWNGRHKPWDFPSVHNDW [L24W]  2.06
85. QEAKLLHWIGRHKPWDFPSVHNDL [N9I]  2
86. QEAKLLHWFGRHKPWDFPSVHNDL [N9F]  1.98
87. QCAKLLHWNGRHKPWDFPSVHNDL [E2C]  1.97
88. QEAKLLHWNGRHKPWDFPSVHVDL [N22V]  1.92
89. QVAKLLHWNGRHKPWDFPSVHNDL [E2V]  1.89
90. QEAKLLHWLGRHKPWDFPSVHNDL [N9L]  1.83
91. QIAKLLHWNGRHKPWDFPSVHNDL [E2I]  1.78
92. FEAKLLHWNGRHKPWDFPSVHNDL [Q1F]  1.65
93. QFAKLLHWNGRHKPWDFPSVHNDL [E2F]  1.58
94. QMAKLLHWNGRHKPWDFPSVHNDL [E2M]  1.45
